Laboratory results as given in US20240132589A1.

Experiments:
[1] = biological target: Human LILRB2 on stably transduced HEK293T cells (human) (UniProt Q8N423); assay: flow cytometry competition on HEK293T-LILRB2 cells; blocking mAb 10 µg/mL; competitor: biotinylated B2Comp2
[2] = biological target: Human LILRB2 on stably transduced HEK293T cells (human) (UniProt Q8N423); assay: flow cytometry competition on HEK293T-LILRB2 cells; blocking mAb 0.1 µg/mL; competitor: biotinylated B2Comp2
[3] = biological target: Human LILRB2 on stably transduced HEK293T cells (human) (UniProt Q8N423); assay: flow cytometry competition on HEK293T-LILRB2 cells; blocking mAb 0.1 µg/mL; competitor: biotinylated B2Comp1
[4] = biological target: Human LILRB2 on stably transduced HEK293T cells (human) (UniProt Q8N423); assay: flow cytometry competition on HEK293T-LILRB2 cells; blocking mAb 1 µg/mL; competitor: biotinylated B2Comp2
[5] = biological target: Human LILRB2 on stably transduced HEK293T cells (human) (UniProt Q8N423); assay: flow cytometry competition on HEK293T-LILRB2 cells; blocking mAb 10 µg/mL; competitor: biotinylated B2Comp1
[6] = biological target: Human LILRB2 on transiently transfected HEK293-6E cells (human) (UniProt Q8N423); assay: flow cytometry, transiently transfected HEK293-6E cells
Human LILRB2 on transiently transfected HEK293-6E cells (human), sequence (Q8N423 22-597): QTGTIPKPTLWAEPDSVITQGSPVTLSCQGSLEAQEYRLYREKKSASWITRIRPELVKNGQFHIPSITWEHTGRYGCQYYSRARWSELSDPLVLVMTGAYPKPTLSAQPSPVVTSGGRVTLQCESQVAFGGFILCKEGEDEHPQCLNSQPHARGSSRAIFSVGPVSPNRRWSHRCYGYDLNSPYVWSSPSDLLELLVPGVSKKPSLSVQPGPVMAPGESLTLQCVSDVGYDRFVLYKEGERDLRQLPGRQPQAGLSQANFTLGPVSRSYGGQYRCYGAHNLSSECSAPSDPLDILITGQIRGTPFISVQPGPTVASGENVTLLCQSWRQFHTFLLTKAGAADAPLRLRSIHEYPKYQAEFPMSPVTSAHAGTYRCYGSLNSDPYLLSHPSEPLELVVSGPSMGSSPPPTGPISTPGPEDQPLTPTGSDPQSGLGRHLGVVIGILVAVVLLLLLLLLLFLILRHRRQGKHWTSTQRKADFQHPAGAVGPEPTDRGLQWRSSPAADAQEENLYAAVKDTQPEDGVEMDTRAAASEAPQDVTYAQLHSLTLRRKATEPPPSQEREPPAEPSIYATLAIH

[7] = biological target: Human LILRB2 on stably transduced HEK293T cells (human) (UniProt Q8N423); assay: flow cytometry competition on HEK293T-LILRB2 cells; blocking mAb 1 µg/mL; competitor: biotinylated B2Comp1

Human LILRB2 on stably transduced HEK293T cells (human), sequence (Q8N423 other isoform, or with tags, fused parts or gaps limits assumed): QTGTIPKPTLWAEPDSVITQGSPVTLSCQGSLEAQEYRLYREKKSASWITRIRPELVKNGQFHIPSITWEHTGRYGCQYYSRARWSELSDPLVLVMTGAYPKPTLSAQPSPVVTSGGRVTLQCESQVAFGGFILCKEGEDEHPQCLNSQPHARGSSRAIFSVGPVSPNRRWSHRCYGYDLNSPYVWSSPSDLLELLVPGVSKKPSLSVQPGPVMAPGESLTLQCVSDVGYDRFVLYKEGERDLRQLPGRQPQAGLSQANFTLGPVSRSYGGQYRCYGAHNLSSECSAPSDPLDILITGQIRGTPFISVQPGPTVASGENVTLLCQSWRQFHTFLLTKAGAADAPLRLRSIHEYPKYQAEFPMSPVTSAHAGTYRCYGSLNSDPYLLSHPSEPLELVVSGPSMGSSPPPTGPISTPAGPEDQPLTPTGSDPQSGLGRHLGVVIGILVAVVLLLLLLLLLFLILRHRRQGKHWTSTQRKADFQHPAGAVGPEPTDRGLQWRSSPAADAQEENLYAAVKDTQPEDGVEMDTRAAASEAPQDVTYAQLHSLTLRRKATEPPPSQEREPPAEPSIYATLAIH

- % Blocking of B2Comp2 Binding [1]: 100%
- % Blocking of B2Comp2 Binding [2]: 44%
- % Blocking of B2Comp1 Binding [3]: 47%
- % Blocking of B2Comp2 Binding [4]: 97%
- % Blocking of B2Comp1 Binding [5]: 80%
- Bmax (MFI) [6]: 9630 MFI
- % Blocking of B2Comp1 Binding [7]: 78%
B1: B2Comp2 (antibody, IgG4, V domains shown)
VH: QITLKESGPTLVKPTQTLTLTCTFSGFSLNTYAMGVSWIRQPPGKALEWLASIWWNGNKYNNPSLKSRLTVTKDTSKNQVVLTMTNMDPVDTATYYCAHSRIIRFTDYVMDAWGQGTLVTVSS
VL: DIQMTQSPSSLSTSVGDRVTITCRASEDIYNDLAWYQQKPGKAPKLLIYNANSLHTGVASRFSGSGSGTDFTFTISSLQPEDVATYFCQQYYDYPLTFGQGTKLEIKR
modifications: Biotin-conjugated when used as the labelled ('hot') benchmark antibody in the binning assay. The site is not stated and is not carried by the letters.
